Target: recombinant human TGFβ1 (rhTGFβ) (human) (UniProt P01137)
Assay: cell-based or functional assay

Sequence of UniProt P01137 (P01137 279-390 limits assumed): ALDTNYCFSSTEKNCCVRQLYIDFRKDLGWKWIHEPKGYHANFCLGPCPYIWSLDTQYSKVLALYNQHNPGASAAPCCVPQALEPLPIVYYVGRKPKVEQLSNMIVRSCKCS

- expansion of JK59 SwR-STEAP1 CAR T cells cultured 21 days with rhTGFβ: 15 fold
- expansion of JK69 SwR-STEAP1 CAR T cells cultured 21 days with rhTGFβ: 33 fold
- phosphorylation level of STAT5 (pY694) in CD3+ JK59 CAR T cells treated with rhTGFβ at 10 ng/ml for 15 min, flow cytometry: 60%
Substance: TGFβ-switch receptor (SwR): extracellular domains of TGFβRI and TGFβRII fused to the transmembrane and intracellular domains of the IL-2/IL-15 receptor β and γ chains

Source: patent publication US20260224624A1
